Laboratory results reported in patent publication US20040152160A1 (UNIVERSITY OF SOUTH FLORIDA, published 2004).

Molecular target: α7-2-nAChR (homomeric receptor of the rat α7-2 splice variant subunit expressed in Xenopus oocytes) (rat, UniProt Q05941 28-502)
Assay: summary statement; no assay given at this place

B1: α-bungarotoxin (ligand)
chain: IVCHTTATSPISAVTCPPGENLCYRKMWCDAFCSSRGKVVELGCAATCPSKKPYEEVTCCSTDKCNPHPKQRPG
- binding result: binds
